Data as given in US6403325B1, “Methods and compounds for treating alzheimer's disease” (priority 1997, dated 2002).

Columns and labels:
[1] = tested on: C57MG mammary epithelial cell line; experiment: Aβ levels in C57MG cells infected with Wnt retrovirus; format: cell-based, mouse; conditions: C57MG cells infected with retrovirus expressing the Wnt protein
[2] = tested on: PC12 cells; experiment: Aβ levels by ELISA in Wnt1-expressing PC12 lines; format: cell-based; conditions: 12 independent Wnt1-expressing PC12 lines
Description: (§1) A retrovirus encoding the Wnt1 protein was introduced into PC12 cells as described in Mol. Cell. Biol. 14:466, (1995), and twelve independent Wnt1-expressing lines were established. Wnt1 expression in the lines was examined by measuring β-catenin levels.

[3] = tested on: PC12 cells; experiment: β-catenin levels in Wnt1-expressing PC12 lines; format: cell-based; conditions: 12 independent Wnt1-expressing PC12 lines
Description: as §1

B1: Wnt5a: Wnt family member expressed in C57MG cells from a Wnt5a retrovirus (protein, UniProt P22725 62-380, looked up)
Protein Wnt-5a: IIGAQPLCSQLAGLSQGQKKLCHLYQDHMQYIGEGAKTGIKECQYQFRHRRWNCSTVDNTSVFGRVMQIGSRETAFTYAVSAAGVVNAMSRACREGELSTCGCSRAARPKDLPRDWLWGGCGDNIDYGYRFAKEFVDARERERIHAKGSYESARILMNLHNNEAGRRTVYNLADVACKCHGVSGSCSLKTCWLQLADFRKVGDALKEKYDSAAAMRLNSRGKLVQVNSRFNSPTTQDLVYIDPSPDYCVRNESTGSLGTQGRLCNKTSEGMDGCELMCCGRGYDQFKTVQTERCHCKFHWCCYVKCKKCTEIVDQFVCK
Aβ levels [1]: did not show increased Aβ levels

B2: Wnt1: Wnt1 protein, member of the Wnt family, expressed in cells from a retrovirus encoding it (protein, UniProt P04426 28-370, looked up)
Proto-oncogene Wnt-1: ANSSGRWWGIVNIASSTNLLTDSKSLQLVLEPSLQLLSRKQRRLIRQNPGILHSVSGGLQSAVRECKWQFRNRRWNCPTAPGPHLFGKIVNRGCRETAFIFAITSAGVTHSVARSCSEGSIESCTCDYRRRGPGGPDWHWGGCSDNIDFGRLFGREFVDSGEKGRDLRFLMNLHNNEAGRTTVFSEMRQECKCHGMSGSCTVRTCWMRLPTLRAVGDVLRDRFDGASRVLYGNRGSNRASRAELLRLEPEDPAHKPPSPHDLVYFEKSPNFCTYSGRLGTAGTAGRACNSSSPALDGCELLCCGRGHRTRTQRVTERCNCTFHWCCHVSCRNCTHTRVLHECL
levels of Aβ peptide in the cell lines ([2]; ELISA): positively correlated with Wnt1 expression | Aβ levels in the culture media ([2]; culture media): positive correlation with Wnt1 expression | β catenin stabilization [3]: positively correlated with the degree of β catenin stabilization | Aβ levels [1]: increase in Aβ levels
